Columns and labels:
[1] = molecular target: prefusion-stabilized RSV F strain A2 (DS-Cav1); assay: SPR
[2] = molecular target: prefusion-stabilized RSV F strain A2 (DS-Cav1); assay: SPR; remark: listed apart in the source

B1: 5C4 Fab (Fab, V domains shown)
VH: EVQLQQSGAELVKPGASVKLSCTASGFNIKDTFFHWVKQRPEQGLEWIGRIDPADGHTKYDPKFQGKATITADTSSNTAFLQLSSLTSVDTAVYYCATTITAVVPTPYNAMDYWGQGTSVTVSS
VL: DIVLTQSPASLAVSLGQRTTISCRASESVDSFDNSFIHWYQQKPGQPPKLLIFLASSLESGVPARFSGSGSRTDFTLTIDPVEADDAATYYCQQSNEDPFTFGSGTKLEIK
Q: B1 was tested. Which Kd [1] did it give?
A: 25.7 nM

Q: What about the koff [2] of the same binder?
A: 0.00454 s⁻¹
